Assay type in all cases: physicochemical
The nature of series [1]: Stability profile of aqueous composition stored in Schott Type 1 glass vials (FIGS. 3 and 4). As to conditions: Schott Type 1 vials. The source says:
Some plastics have also proven to be effective in assisting in the stabilization of the peptide composition. In this regard, preferred plastics are cyclic olefin copolymers, available, for example, from West Pharmaceuticals under the product name CZ resin vials, or from Schott under the product name TopPac vials, or from Alcan packaging under the product name Ticona Topas serum vials. The compositions of the present invention may also be stored in PVC, as well as non-PVC flexible bags. When stored in the above described glass or plastic containers, the above-described storage times at the above-described storage temperatures can be achieved, although for storage periods of at least 18 months, Type I Plus (vapor treated silicon) vials and Type I Plus glass ampules are preferred. […] It will be appreciated by those skilled in the art that the measured stability of pharmaceutical compositions at elevated temperatures, such as 40° C. or higher, may serve as the basis of prediction of stability for longer periods at more typical storage temperatures, such as 20°-25° C. or 4°-8° C., for example. Such “accelerated storage” studies are common in the field of the present invention.

Series [2] can be described thus: Stability of motilin-like peptide following autoclaving and storage (HPLC, undegraded peptide remaining). The note with it: 30 μg/ml in 10 mM sodium acetate buffer, pH 5.0; Type I glass vials; autoclaved at 121° C. for 15 minutes; storage for 3 months at 55° C. As to the method:
The motilin-like peptide of SEQ ID NO.: 1 was dissolved at a concentration of 30 μg/ml in 10 mM sodium acetate buffer, pH 5.0. Samples of the peptide solution stored in Type I glass vials were autoclaved at 121° C. for 15 minutes and the autoclaved samples were incubated at 5° C., 25° C., 40° C., or 55° C. The potency of the peptide following storage at each temperature was measured over time by testing samples after incubation of one week, two weeks, three weeks, one month and three months. Potency was determined by using HPLC to measure the amount of undegraded peptide remaining in each sample.
It will be appreciated by those skilled in the art that stability data obtained at such elevated temperatures (i.e., accelerated storage conditions) may be used to predict stability at lower, more typical storage temperatures over extended periods of time.

Series [3] is described as follows: Stability of lyophilized formulations of motilin-like peptide compositions (HPLC after reconstitution in water). The note with it: 30 μg/ml in 10 mM citrate buffer, 1% w/v sucrose, pH 6.0, stored in 20 ml vial at 40° C. for several months, reconstituted in water. As to the method:
The motilin-like peptide including SEQ ID NO.: 1 was dissolved at a concentration of 30 μg/ml in 10 mM citrate buffer and 1% w/v of sucrose (bulking agent) at pH 6.0. The composition was lyophilized by standard techniques and stored in a 20 ml vial at 40° C. The potency of the motilin-like peptide was measured at the time intervals indicated in FIG. 5, by reconstituting the composition in water. Potency was determined by using HPLC to measure the amount of undegraded peptide remaining in each sample. […] Again, it will be appreciated by those skilled in the art that the stability of pharmaceutical compositions at elevated temperatures, such as 40° C. as in FIG. 5, may serve as the basis of prediction of stability for longer periods at more typical storage temperatures, such as approximately 20° C.-25° C. or 4° C.-8° C., for example.

A short description of series [4]: Degradation during storage as a function of composition pH. As to conditions: pH approximately 3 to 9, most preferably approximately 4.8-5.2. How it is done:
In one embodiment, where the composition is provided in a “ready-to-use” form, the motilin-like peptide is dissolved in a buffer solution to provide an aqueous composition. […] More preferably, the pH of the pharmaceutical compositions is between approximately 4 and 6, more preferably 4.5 and 5.5 and, most preferably, between approximately 4.8-5.2. At these pH levels, the peptide of SEQ. ID. […] (The preferred pH of the composition may also be determined, in part, based on whether the composition is prepared as an aqueous composition or a lyophilized formulation, discussed below.)

Non-standard residues stand in square brackets, D forms with d. Me3N+ = N-terminal trimethylammonium

Turning to “(Me3N) ^+Phe-Val-Pro-Ile-Phe-Thr-Tyr-Gly-Glu-Leu-Gln-D-Arg-Leu-Lys-NH2 ({Me3N+}-FVPIFTYGELQ[dR]LK-NH2) [SEQ ID NO.: 1, synthetic motilin-like peptide receptor agonist]”, the “stability (maintenance of high levels of potency)” value is recorded as “demonstrated stability” in series [1] (30 μg/ml, several months at 5° C. to 55° C. (FIG. 4)) and “demonstrated stability” in series [1] (approximately 5 μg/ml, several months at 5° C. to 55° C. (FIG. 3)). The “potency retained (amount of undegraded peptide remaining by HPLC)” value in series [2] and in series [3] was “greater than 90%” in each case. For the same substance, the degradation during storage entry in series [4] is reported as “only minimal degradation”.

(Values after patent US20060293243A1, “Stable, buffered, pharmaceutical compositions including motilin-like peptides” (priority 2005, published 2006).)
